In publication PMC7917804 one finds response data, which are given here for four molecules.

The assay deals with poly(A)-binding protein (PABP), P11940. Nature of the assay: co-immunoprecipitation with anti-FLAG antibody, Western blot quantified with ImageJ. The conditions noted are these: chain shown with the change, HeLa cells, parent: est. 1.0, read off a plot. A general note: Immunoblotting shows a protein as a band on a membrane.
Chain of poly(A)-binding protein (PABP), P11940 (P11940 whole entry): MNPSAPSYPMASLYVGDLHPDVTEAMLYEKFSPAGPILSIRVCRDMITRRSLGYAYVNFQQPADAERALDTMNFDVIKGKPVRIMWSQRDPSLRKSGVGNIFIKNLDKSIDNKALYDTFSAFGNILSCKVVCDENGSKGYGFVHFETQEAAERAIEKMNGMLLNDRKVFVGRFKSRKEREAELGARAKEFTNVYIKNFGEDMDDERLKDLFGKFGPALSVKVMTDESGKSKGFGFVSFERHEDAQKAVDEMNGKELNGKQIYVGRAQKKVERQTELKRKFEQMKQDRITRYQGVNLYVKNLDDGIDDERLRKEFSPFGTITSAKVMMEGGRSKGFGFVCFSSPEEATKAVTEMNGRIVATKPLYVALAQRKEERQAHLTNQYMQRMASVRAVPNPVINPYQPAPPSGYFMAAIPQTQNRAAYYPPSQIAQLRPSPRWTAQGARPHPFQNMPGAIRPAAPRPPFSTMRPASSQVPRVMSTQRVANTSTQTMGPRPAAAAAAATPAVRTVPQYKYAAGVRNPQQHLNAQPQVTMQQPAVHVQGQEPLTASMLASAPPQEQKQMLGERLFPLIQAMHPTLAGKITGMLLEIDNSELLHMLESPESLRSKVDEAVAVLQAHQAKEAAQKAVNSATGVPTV

B1: FLAG-HA-SBP (FHS)-tagged full-length TNRC6A, wild type, Q8NDV7-2 S1616D; S1691D (protein)
chain: MDADSASSSESERNITIMASGNTGGEKDGLRNSTGLGSQNKFVVGSSSNNVGHGSSTGPWGFSHGAIISTCQVSVDAPESKSESSNNRMNAWGTVSSSSNGGLNPSTLNSASNHGAWPVLENNGLALKGPVGSGSSGINIQCSTIGQMPNNQSINSKVSGGSTHGTWGSLQETCESEVSGTQKVSFSGQPQNITTEMTGPNNTTNFMTSSLPNSGSVQNNELPSSNTGAWRVSTMNHPQMQAPSGMNGTSLSHLSNGESKSGGSYGTTWGAYGSNYSGDKCSGPNGQANGDTVNATLMQPGVNGPMGTNFQVNTNKGGGVWESGAANSQSTSWGSGNGANSGGSRRGWGTPAQNTGTNLPSVEWNKLPSNQHSNDSANGNGKTFTNGWKSTEEEDQGSATSQTNEQSSVWAKTGGTVESDGSTESTGRLEEKGTGESQSRDRRKIDQHTLLQSIVNRTDLDPRVLSNSGWGQTPIKQNTAWDTETSPRGERKTDNGTEAWGSSATQTFNSGACIDKTSPNGNDTSSVSGWGDPKPALRWGDSKGSNCQGGWEDDSAATGMVKSNQWGNCKEEKAAWNDSQKNKQGWGDGQKSSQGWSVSASDNWGETSRNNHWGEANKKSSSGGSDSDRSVSGWNELGKTSSFTWGNNINPNNSSGWDESSKPTPSQGWGDPPKSNQSLGWGDSSKPVSSPDWNKQQDIVGSWGIPPATGKPPGTGWLGGPIPAPAKEEEPTGWEEPSPESIRRKMEIDDGTSAWGDPSKYNYKNVNMWNKNVPNGNSRSDQQAQVHQLLTPASAISNKEASSGSGWGEPWGEPSTPATTVDNGTSAWGKPIDSGPSWGEPIAAASSTSTWGSSSVGPQALSKSGPKSMQDGWCGDDMPLPGNRPTGWEEEEDVEIGMWNSNSSQELNSSLNWPPYTKKMSSKGLSGKKRRRERGMMKGGNKQEEAWINPFVKQFSNISFSRDSPEENVQSNKMDLSGGMLQDKRMEIDKHSLNIGDYNRTVGKGPGSRPQISKESSMERNPYFDKDGIVADESQNMQFMSSQSMKLPPSNSALPNQALGSIAGLGMQNLNSVRQNGNPSMFGVGNTAAQPRGMQQPPAQPLSSSQPNLRAQVPPPLLSPQVPVSLLKYAPNNGGLNPLFGPQQVAMLNQLSQLNQLSQISQLQRLLAQQQRAQSQRSVPSGNRPQQDQQGRPLSVQQQMMQQSRQLDPNLLVKQQTPPSQQQPLHQPAMKSFLDNVMPHTTPELQKGPSPINAFSNFPIGLNSNLNVNMDMNSIKEPQSRLRKWTTVDSISVNTSLDQNSSKHGAISSGFRLEESPFVPYDFMNSSTSPASPPGSIGDGWPRAKSPNGSSSVNWPPEFRPGEPWKGYPNIDPETDPYVTPGSVINNLSINTVREVDHLRDRNSGSSSSLNTTLPSTSAWSSIRASNYNVPLSSTAQSTSARNSDSKLTWSPGSVTNTSLAHELWKVPLPPKNITAPSRPPPGLTGQKPPLSTWDNSPLRIGGGWGNSDARYTPGSSWGESSSGRITNWLVLKNLTPQIDGSTLRTLCMQHGPLITFHLNLPHGNALVRYSSKEEVVKAQKSLHMCVLGNTTILAEFASEEEISRFFAQSQSLTPDPGWQSLGSSQSRLGSLDCSHSFSSRTDLNHWNGAGLSGTNCGDLHGTSLWGTPHYSTSLWGPPSSSDPRGISSPDPINAFLSVDHLGGGGESM
In the case of B1, under “two independent experiments”, the response turned out to be 0.89.

B2: FLAG-HA-SBP (FHS)-tagged full-length TNRC6A, wild type, Q8NDV7-2 S1332D; S1346D (protein)
chain: MDADSASSSESERNITIMASGNTGGEKDGLRNSTGLGSQNKFVVGSSSNNVGHGSSTGPWGFSHGAIISTCQVSVDAPESKSESSNNRMNAWGTVSSSSNGGLNPSTLNSASNHGAWPVLENNGLALKGPVGSGSSGINIQCSTIGQMPNNQSINSKVSGGSTHGTWGSLQETCESEVSGTQKVSFSGQPQNITTEMTGPNNTTNFMTSSLPNSGSVQNNELPSSNTGAWRVSTMNHPQMQAPSGMNGTSLSHLSNGESKSGGSYGTTWGAYGSNYSGDKCSGPNGQANGDTVNATLMQPGVNGPMGTNFQVNTNKGGGVWESGAANSQSTSWGSGNGANSGGSRRGWGTPAQNTGTNLPSVEWNKLPSNQHSNDSANGNGKTFTNGWKSTEEEDQGSATSQTNEQSSVWAKTGGTVESDGSTESTGRLEEKGTGESQSRDRRKIDQHTLLQSIVNRTDLDPRVLSNSGWGQTPIKQNTAWDTETSPRGERKTDNGTEAWGSSATQTFNSGACIDKTSPNGNDTSSVSGWGDPKPALRWGDSKGSNCQGGWEDDSAATGMVKSNQWGNCKEEKAAWNDSQKNKQGWGDGQKSSQGWSVSASDNWGETSRNNHWGEANKKSSSGGSDSDRSVSGWNELGKTSSFTWGNNINPNNSSGWDESSKPTPSQGWGDPPKSNQSLGWGDSSKPVSSPDWNKQQDIVGSWGIPPATGKPPGTGWLGGPIPAPAKEEEPTGWEEPSPESIRRKMEIDDGTSAWGDPSKYNYKNVNMWNKNVPNGNSRSDQQAQVHQLLTPASAISNKEASSGSGWGEPWGEPSTPATTVDNGTSAWGKPIDSGPSWGEPIAAASSTSTWGSSSVGPQALSKSGPKSMQDGWCGDDMPLPGNRPTGWEEEEDVEIGMWNSNSSQELNSSLNWPPYTKKMSSKGLSGKKRRRERGMMKGGNKQEEAWINPFVKQFSNISFSRDSPEENVQSNKMDLSGGMLQDKRMEIDKHSLNIGDYNRTVGKGPGSRPQISKESSMERNPYFDKDGIVADESQNMQFMSSQSMKLPPSNSALPNQALGSIAGLGMQNLNSVRQNGNPSMFGVGNTAAQPRGMQQPPAQPLSSSQPNLRAQVPPPLLSPQVPVSLLKYAPNNGGLNPLFGPQQVAMLNQLSQLNQLSQISQLQRLLAQQQRAQSQRSVPSGNRPQQDQQGRPLSVQQQMMQQSRQLDPNLLVKQQTPPSQQQPLHQPAMKSFLDNVMPHTTPELQKGPSPINAFSNFPIGLNSNLNVNMDMNSIKEPQSRLRKWTTVDSISVNTSLDQNSSKHGAISSGFRLEESPFVPYDFMNSSTSPADPPGSIGDGWPRAKDPNGSSSVNWPPEFRPGEPWKGYPNIDPETDPYVTPGSVINNLSINTVREVDHLRDRNSGSSSSLNTTLPSTSAWSSIRASNYNVPLSSTAQSTSARNSDSKLTWSPGSVTNTSLAHELWKVPLPPKNITAPSRPPPGLTGQKPPLSTWDNSPLRIGGGWGNSDARYTPGSSWGESSSGRITNWLVLKNLTPQIDGSTLRTLCMQHGPLITFHLNLPHGNALVRYSSKEEVVKAQKSLHMCVLGNTTILAEFASEEEISRFFAQSQSLTPSPGWQSLGSSQSRLGSLDCSHSFSSRTDLNHWNGAGLSGTNCGDLHGTSLWGTPHYSTSLWGPPSSSDPRGISSPSPINAFLSVDHLGGGGESM
As to B2, the response (two independent experiments) turned out to be 1.4.

B3: FLAG-HA-SBP (FHS)-tagged TNRC6A-SD-WT, Q8NDV7-2 S1332D; S1346D (protein)
chain: PLHQPAMKSFLDNVMPHTTPELQKGPSPINAFSNFPIGLNSNLNVNMDMNSIKEPQSRLRKWTTVDSISVNTSLDQNSSKHGAISSGFRLEESPFVPYDFMNSSTSPADPPGSIGDGWPRAKDPNGSSSVNWPPEFRPGEPWKGYPNIDPETDPYVTPGSVINNLSINTVREVDHLRDRNSGSSSSLNTTLPSTSAWSSIRASNYNVPLSSTAQSTSARNSDSKLTWSPGSVTNTSLAHELWKVPLPPKNITAPSRPPPGLTGQKPPLSTWDNSPLRIGGGWGNSDARYTPGSSWGESSSGRITNWLVLKNLTPQIDGSTLRTLCMQHGPLITFHLNLPHGNALVRYSSKEEVVKAQKSLHMCVLGNTTILAEFASEEEISRFFAQSQSLTPSPGWQSLGSSQSRLGSLDCSHSFSSRTDLNHWNGAGLSGTNCGDLHGTSLWGTPHYSTSLWGPPSSSDPRGISSPSPINAFLSVDHLGGGGESM
With B3, the response (three independent experiments) is 1.1.

B4: FLAG-HA-SBP (FHS)-tagged TNRC6A-SD-WT, Q8NDV7-2 S1616D; S1691D (protein)
chain: PLHQPAMKSFLDNVMPHTTPELQKGPSPINAFSNFPIGLNSNLNVNMDMNSIKEPQSRLRKWTTVDSISVNTSLDQNSSKHGAISSGFRLEESPFVPYDFMNSSTSPASPPGSIGDGWPRAKSPNGSSSVNWPPEFRPGEPWKGYPNIDPETDPYVTPGSVINNLSINTVREVDHLRDRNSGSSSSLNTTLPSTSAWSSIRASNYNVPLSSTAQSTSARNSDSKLTWSPGSVTNTSLAHELWKVPLPPKNITAPSRPPPGLTGQKPPLSTWDNSPLRIGGGWGNSDARYTPGSSWGESSSGRITNWLVLKNLTPQIDGSTLRTLCMQHGPLITFHLNLPHGNALVRYSSKEEVVKAQKSLHMCVLGNTTILAEFASEEEISRFFAQSQSLTPDPGWQSLGSSQSRLGSLDCSHSFSSRTDLNHWNGAGLSGTNCGDLHGTSLWGTPHYSTSLWGPPSSSDPRGISSPDPINAFLSVDHLGGGGESM
As for B4, the response (three independent experiments) amounted to 0.54.
